Measurements reported in PMC3293909.

Legend:
[1] = molecular target: T1, ephrin B1 (mouse (endogenous in primary osteoclasts))
T1 sequence (P52795 whole entry, looked up): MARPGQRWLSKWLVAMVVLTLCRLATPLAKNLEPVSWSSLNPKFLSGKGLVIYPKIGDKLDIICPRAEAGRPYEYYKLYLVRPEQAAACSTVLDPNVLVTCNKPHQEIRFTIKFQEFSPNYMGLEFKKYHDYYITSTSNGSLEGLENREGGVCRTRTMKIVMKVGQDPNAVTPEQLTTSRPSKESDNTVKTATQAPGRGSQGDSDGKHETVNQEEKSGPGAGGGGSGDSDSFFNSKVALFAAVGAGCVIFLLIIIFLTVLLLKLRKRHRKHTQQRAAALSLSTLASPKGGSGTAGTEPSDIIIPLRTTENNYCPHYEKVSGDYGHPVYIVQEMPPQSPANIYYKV

[2] = molecular target: T1, ephrin B1 (mouse (endogenous in primary osteoclasts)); remark: listed apart in the source

B1: clustered soluble recombinant EphB2-Fc (Fc fusion)
chain: VEETLMDSTTATAELGWMVHPPSGWEEVSGYDENMNTIRTYQVCNVFESSQNNWLRTKFIRRRGAHRIHVEMKFSVRDCSSIPSVPGSCKETFNLYYYEADFDLATKTFPNWMENPWVKVDTIAADESFSQVDLGGRVMKINTEVRSFGPVSRNGFYLAFQDYGGCMSLIAVRVFYRKCPRIIQNGAIFQETLSGAESTSLVAARGSCIANAEEVDVPIKLYCNGDGEWLVPIGRCMCKAGFEAVENGTVCRGCPSGTFKANQGDEACTHCPINSRTTSEGATNCVCRNGYYRADLDPLDMPCTTIPSAPQAVISSVNETSLMLEWTPPRDSGGREDLVYNIICKSCGSGRGACTRCGDNVQYAPRQLGLTEPRIYISDLLAHTQYTFEIQAVNGVTDQSPFSPQFASVNITTNQAAPSAVSIMHQVSRTVDSITLSWSQPDQPNGVILDYELQYYEKELSEYNATAIKSPTNTVTVQGLKAGAIYVFQVRARTVAGYGRYSGKMYFQTMTEAEYQTSIKEKLPL
For B1, the inhibition of the area of bone resorption pits formed by WT osteoclast precursors on bone slices by EphB2-Fc against control Fc; no significant effect on ephrin B1 deficient cells [1] was 54%, the suppression of multinucleated cell (MNC) formation from WT splenocyte precursors by EphB2-Fc (2 µg/ml) against control Fc; little effect on ephrin B1 deficient cells [1] was 49.8% and the inhibition of NFATc1 mRNA (real-time RT-PCR) in WT osteoclasts treated with EphB2-Fc against control Fc; not in ephrin B1 deficient cells [2] was 67%. It also gave an inhibition of cathepsin K mRNA (real-time RT-PCR) in WT osteoclasts treated with EphB2-Fc against control Fc; not in ephrin B1 deficient cells [2] of 60% and a reduction of TRAP mRNA (real-time RT-PCR) in differentiated WT osteoclasts treated with soluble EphB2-Fc for 4 days against control Fc [2] of 62%.
